# B1: TPR t1 (parent)
# chain: GACCAAUCUGCCCUCAGAGCUCGAGAACAUCUUCGGAUGCAGAGGAGGCAGGCUUCGGUGGCGCGAUAGCGCCAACGUCCUCAACCUCCAAUGCAUCCCACCACAUGAUGAUGCCUGAAGAGCCUUGGUUUUUUG
# Variants of: B1
# Assay: polymerase ribozyme fitness, log enrichment relative to wild type (log ratio); higher = more active; in vitro selection for triplet polymerase activity
# How it was run: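 Mutant libraries were PCR-built and transcribed for each subunit of a heterodimeric triplet polymerase ribozyme and selected for one round in triplicate at −7 °C, frozen, before gel excision of extended constructs and streptavidin-bead capture. Input and output libraries were Illumina-sequenced, keeping genotypes with ≥10 input reads and ≥1 read per output. Fitness is a logarithmic ratio of genotype to wild-type enrichment, in base 2, using inverse-variance-weighted replicate averages.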
row,Variant,polymerase ribozyme fitness (log ratio)
1,C49G C82G,-1.03
2,C49U C101A,-1.69
3,A50G C99U,-3.27
4,C49G U81G,-3.01
5,A50G C88A C97G,-4.42
6,A50G G120A,0.658
7,C49A C73A C88U A91U C124U,-0.744
8,G48A U54A A84U U129A,-1.42
9,C49A G52U G71C,-1.75
10,C49U C53U C79A G120A G128A,-3.2
11,G48U G113A,-1.18
12,A50C G63U G69U U81G G128C,-3.4
13,G48U C49G,-0.587
14,G48U C79A U112A,-2.84
15,C49U U112A,0.631
16,A50U A84G A111C,-4.92
17,A50U U81A A100C,-1.2
18,C49U A95U C102A,-3.2
19,G48U C49U C72A C73A U131C,-2.61
20,G51A C88U,-2.93
21,A50U U116A,-4.25

row,Variant,polymerase ribozyme fitness (log ratio)
1,G48C U81A G127C,-3.51
2,G48C C73G G93A C124A,-1.39
3,G48U U54C C101U U130G,-1.13
4,A50C G71U U130A,-0.942
5,C49U C53U,-0.552
6,C49A G51C A100C U132A,-5.52
7,C49G U130A,-1.8
8,C49U C72A C79G C104A,-4.65
9,G48U G120U,-0.428
10,C49G A83U,-0.66
11,A50C C56A,-0.326
12,C49A G71U,-0.754
13,C49U G117C,-3.03
14,C49U C62G,-4.14
15,A50U C99U,-5.15
16,A50C C73A U78G A90G,-1.98
17,C49A G93C U112A,0.173
18,A50G U129G,-0.967
19,C49U C115A,-0.871
20,A50U,-0.868
21,A50G,0.111

row,Variant,polymerase ribozyme fitness (log ratio)
1,A50C,-0.212
2,C49A A91G,-1.63
3,C49U G69U G117U,-2.25
4,C49G G69U C115U,0.956
5,G51A C62U U112A G113U,-4.77
6,G51A G60U G113A U116A,-7.25
7,A50C G63C C97U,-1.52
8,G48C U78C G120C C124G,0.298
9,G48U G69A G135U,-5.98
10,C49U U87A,-0.416
11,C49U A50G,-1.68
12,A50U C56A G69C C80G C104G C115G C123U U130C,-8.59
13,C49U A118U,-0.365
14,A50U C72U A74G,-1.22
15,C49A U106G,-2.41
16,C49A U106A,-0.478
17,G48C G52A C102A A111C A119U,-4.33
18,C49U G63C,-0.762
19,G48C G71A A108G U112C G117U,-6.18
20,C49U C86U C97U G117C C124A,-4.42
21,A50U G63U C104A,-5.48

row,Variant,polymerase ribozyme fitness (log ratio)
1,C49A C53A C86A U112G G128A,-3.85
2,G48U A84C C114U U116G U132A,-7.04
3,C49A A90U,-0.956
4,C49A A90C,-1.35
5,G48U C49U G71C C86A,-2.67
6,C49A C101G C115A G120A,-2.2
7,C49U G58A U125A,-1.44
8,G48U A121U,0.519
9,C49U G52U G61A G120A,-0.105
10,C49G G117C,-4.72
11,C49G G117U,-2.86
12,G48U U54G G58C U129A,-2.45
13,C49U G113A,-1.68
14,C49A G57A G110C,-6.31
15,A50C C76G C82A G120C,-0.0695
16,C49A C124U,0.812
17,C49A U55C C88G C94U C124U,0.14
18,C49A C73U C88U C94U C123U U132G G135U,-1.74
19,A50U C73A C76G U112A,-3.53
20,G48C G69U,-0.209
